Measured values as given in the supplement of paper PMC9170038.

System: MS2 coat protein
Test: apparent KD of MS2 coat protein; designed switch direction (-1 OFF switch, 1 ON switch): -1; higher = weaker reporter binding
How it was run: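 Apparent KD, taken as the median over clusters for each design, was obtained by curve-fitting normalised cluster fluorescence. Designed RNA switches had been transcribed on Illumina chips by stalled E. coli RNA polymerase and titrated with SNAP-549-labelled MS2 coat protein, doubling from 0.7 or 1.5 nM to 3 µM.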

[1] = Eterna round: R95, input ligand: FMN 200 uM
[2] = Eterna round: R95, input ligand: microRNA oligo, concentration not stated
[3] = Eterna round: R95, input ligand: none
[4] = input ligand: microRNA oligo, concentration not stated

| Sequence | apparent KD of MS2 coat protein (input ligand: FMN 200 uM) [nM] | apparent KD of MS2 coat protein (input ligand: none) [nM] | apparent KD of MS2 coat protein [2] [nM] | other results |
| --- | --- | --- | --- | --- |
| ACAAGCUUUGUUGGGUGGUACAUGAGGAUCACCCAUGUUUGCCGCGUCUUGUGGGCCCGGGCCCGCGGCCCGGGCCC [-41.8, -63.9, A 12%] (Eterna round: R97, puzzle: Sensor, turn-off variant 1) | 403 | 460 |  |  |
| UUUUUAUAAGGAUAUAUGUGGAUAAUUUUUAUAUGAAAAUUACAUGAGGAUCACCCAUGUAGAAGGUAUGGAGG [-13.9, -11.8 kcal, 35% A] (Eterna round: R97, puzzle: Exclusion 2) | 24 | 39.2 |  |  |
| AUAACAUGCUGGUGAUCAUACAUGAGGAUCACCCAUGUAACAAGCUUUUUGUUCGUCUUAUAAUUUAAGAUCACCAG [Stov1/7-B2] (Eterna round: R97, puzzle: Sensor, turn-off variant 1) | 21.7 | 19.2 |  |  |
| UAUAAAACAUAGGAUAUCGAAUUAAUCAUUUAACGAGAAGGAUGAACAUGAGGAUCACCCAUGUGGUAUCAUGG [Mat - Exclusion 6 - JL Mod - D9] (puzzle: Exclusion 6) |  |  | 61.5 | apparent KD of MS2 coat protein [1]: 333 nM; apparent KD of MS2 coat protein [3]: 129 nM |
| UACACUGCAUGAGGAUCAAACAUGAGGAUCACCCAUGUAUAGCAGGCUUUUUGCACGUCUUAUAAUUAUGUAGUGUA [Electric Eye 15 - Jieux - Sensor, turn-off variant 1] (Eterna round: R97, puzzle: Sensor, turn-off variant 1) | 14.2 | 14.4 |  |  |
| ACAUGAGGAUCACCCAUGUCGAGUACAUGAGGAUCACCCAUGUAGGAUAUGGUUCGCUUUGCGUGCUAGAAGGAUAUGUGAUGG [salish99_ExNG3_r04_513] (Eterna round: R96, puzzle: Exclusion NG 3) | 396 | 329 |  | apparent KD of MS2 coat protein [4]: 217 nM |
| GGUGUGCCAGUCAGGAUAUGAUCCACGCCCGUAGGUCAGAAGGGACUUGAGGAUCACCCAAGUUGCAAGAAAGA [Gesoxedi] (Eterna round: R97, puzzle: Brourd's mod of Exclusion 4) | 100 | 97.3 |  |  |
| UUUUAACAUGAGGAUCACCCAUGUGAGGAUAUCGUAUUUUUUAUUAAUAUUAAUAAAACGAGAAGGCACAUUUU [JMF 17] (puzzle: Exclusion 1) |  |  | 86.1 |  |
| GAGUGACAUGAGGAUCACCCAUGUGAGGAUAUCGGACGGACCAAAUUAACAAUAAAAGCGAGAAGGCACAUCGG [Exclusion 1 V12] (puzzle: Exclusion 1) |  |  | 57.6 | apparent KD of MS2 coat protein [1]: 64.7 nM; apparent KD of MS2 coat protein [3]: 66.5 nM |
| AAUUCACAUGAGGAUCACCCAUGUCAGGAUAUGGUUACGCGGGUUUCGGUGCGUGUGGCCAGAAGGGACAGCUA (puzzle: Exclusion 1) |  |  | 54.6 |  |
| UUUUUACAUGAGGAUCACCCAUGUCAGGAUAUCGUUAUAUUUUAUUAUUUUAUUUUUUCGAGAAGGGACUAUUA [My solution] (puzzle: Exclusion 1) |  |  | 74.6 |  |
| AGCAAAUCAGGAUAUGUACUGGACGACAUGAGGAUCACCCAUGUGAUUCAGUGCGCGAGAACAGAAGGGAUUCGCU [Isor] (puzzle: Exclusion 5) |  |  | 15.4 |  |
| AAUAUUAGAGGAUAUACAGUUUAUUACAUGAGGAUCACCCAUGUUCUUCAAUGUAUAUAAGUAGAAGGCUAAGGAA [EX-5 Malc#2] (puzzle: Exclusion 5) |  |  | 42.6 | apparent KD of MS2 coat protein [1]: 157 nM; apparent KD of MS2 coat protein [3]: 43.7 nM |
| CAUUAUGUUGAGGAUAUGCGCCGGCAAACUGACGCAGAAGGCGACACAUGAGGAUCACCCAUGUCAGUUCGCGA [salish99_ex6_r004_423] (Eterna round: R97, puzzle: Exclusion 6) | 13.3 | 14.9 |  |  |
| UUUCCUUGUGUGAGGAUAUACUUGUUUGUGUUUUUGUAGAAGGCACAUGAGGAUCACCCAUGUACUCUUUCCUG [JR_BME4_Sub023] (puzzle: Brourd's mod of Exclusion 4) |  |  | 34.2 |  |
| GAGCUAUGAGGAUAUGCAUAUAUACGGUUUCGUGUGGUACUACAUGAGGAUCACCCAUGUAGAAGGCGUGGCAG [Mat - Exclusion 2 - Mod of JL - D78] (puzzle: Exclusion 2) |  |  | 16.7 |  |
| CUUUUGUGAGGAUAUUAGUAGUAAAUAAUUAAAAUUAUUACUGAGAAGGCACAUGAGGAUCACCCAUGUAACUC [JR_Ex4_Sub027] (Eterna round: R97, puzzle: Exclusion 4) | 400 | 49.9 |  |  |
| AUAAUGUAAGGAUAUCAGUCGUACAGCUGCGGCUGUACGACUGAGAAGGUACAUGAGGAUCACCCAUGUGGUCA [E4/9-A3] (Eterna round: R97, puzzle: Exclusion 4) | 324 | 694 |  |  |

| Sequence | apparent KD of MS2 coat protein (input ligand: FMN 200 uM) [nM] | apparent KD of MS2 coat protein (input ligand: none) [nM] | apparent KD of MS2 coat protein [2] [nM] | other results |
| --- | --- | --- | --- | --- |
| AAGAGUGCAGGAUAUACUUGUUAGGACGGUUGGAUGAUUUGACAUGAGGAUCACCCAUGUAGAAGGGCAGAGAG [JR_Exclu2_Sub052] (puzzle: Exclusion 2) |  |  | 126 |  |
| ACCGCCGGCGUAAGGAUAUGUGAAGAAAUCCCUUUACAGAAGGUACAUGAGGAUCACCCAUGUCUUCUAGGACG [Eternabot (L1) Solution 96] (Eterna round: R97, puzzle: Brourd's mod of Exclusion 4) | 21.3 | 22.3 |  |  |
| GCCGAAAGCGUAGGAUAUCGAAUAAAGCGGAAACGCAAGACAUGAGGAUCACCCAUGUGUCCGGACGAGAAGGGCGAAAGCGGC [EXNG2 V2 a] (Eterna round: R96, puzzle: Exclusion NG 2) | 33.4 | 34.3 |  | apparent KD of MS2 coat protein [4]: 27.1 nM |
| GAUGAGGUAGGAUAUACGAGAAUAUAGGGUAGAUAUAUAACACAUGAGGAUCACCCAUGUAGAAGGACCAGUAG [Mat - Exclusion 2 - Mod of my Tesla design - D70] (puzzle: Exclusion 2) |  |  | 33.6 |  |
| UGAUGCUCAGGAUAUACAUCAGUGUUCAGGCCAAAAGGCGGACAUGAGGAUCACCCAUGUAGAAGGGAGCGUUC [Eternabot (L1) Solution 13] (Eterna round: R97, puzzle: Exclusion 2) | 900 | 380 |  |  |
| AUCAGCUCGUCAGGAUAUACAUCACUGCUUCGGCAGUGUAUUAAGAUCACAUGAGGAUCACCCAUGUAGAAGGGACGAGCUGAU [ENG2/2-B3] (Eterna round: R96, puzzle: Exclusion NG 2) | 342 | 25.3 |  | apparent KD of MS2 coat protein [4]: 18.2 nM |
| UUUAGUUCAGGAUAUGAUGAAUUAAACAUGAGGAUCACCCAUGUAGAUCCUGAAUUAACAUCAGAAGGGAACAUUU [JL-ex5-4.48 Brourd mod] (Eterna round: R97, puzzle: Exclusion 5) | 41.8 | 15 |  |  |
| UGCGUUAGAGGAUAUACGUAGAACUAGGUUCAUGUAAAACUACAUGAGGAUCACCCAUGUAGAAGGCUAGCGCU [Mat - Exclusion 2 - JL Mod - D43] (Eterna round: R97, puzzle: Exclusion 2) | 20.4 | 15.4 |  |  |
| CUAACAUGCUGGUGAUCAUACAUGAGGAUCACCCAUGUAACAAGCUUUUUGCUCGUCUUAUAAGAUCACCAGCAUGU [Stov1/9-A4] (Eterna round: R97, puzzle: Sensor, turn-off variant 1) | 16.2 | 15.5 |  |  |
| CAGUGACAUGAGGAUCACCCAUGUCAGGAUAUCUGUACCAUCCGACGGAGGUCCAGACAGAGAAGGGACUUGGG [Eternabot (L1) Solution 31] (Eterna round: R97, puzzle: Exclusion 1) | 76.9 | 49.9 |  |  |
| AAAUCGCAAGGAUAUCGUCAGUCUGACAUGAGGAUCACCCAUGUUAUCUUGGUAUCAGAGCGAGAAGGUGCAAAGU [Erbied] (Eterna round: R96, puzzle: Exclusion 5) | 10.8 | 14.6 |  | apparent KD of MS2 coat protein [4]: 9.45 nM |
| GGCUGACAUGUAGGAUAUCUGCACGUUUAGUGCAGAGAAGGACAUGAGGAUCACCCAUGUAUAGCGACUUCGGUCGCAACAGCC [ENG1/2-A2] (Eterna round: R96, puzzle: Exclusion NG 1) | 115 | 48.3 |  | apparent KD of MS2 coat protein [4]: 31.6 nM |
| AUUAAUCAUGUAGGAUAUGCGUGGCGAAGCUAUGCAGAAGGACAUGAGGAUCACCCAUGUUCUAGCGUCUGCGUACAGAUGCUA [JL ENG1 1.37] (Eterna round: R96, puzzle: Exclusion NG 1) | 349 | 37.6 |  | apparent KD of MS2 coat protein [4]: 29.5 nM |
| CAGGAUAGAGGAUAUACAUAGAUACAGAUUCAUGUGGUCCUACAUGAGGAUCACCCAUGUAGAAGGCUAUCCUG [Fiskers Ex 2 - 22] (puzzle: Exclusion 2) |  |  | 180 |  |
| UCGCAGGGAGGAUAUACACACAGGUGACGCAGCCCAAAAGAACAUGAGGAUCACCCAUGUAGAAGGCUCAAUAU [Eternabot (Original) Solution 2] (Eterna round: R97, puzzle: Exclusion 2) | 51.5 | 31.2 |  |  |
| ACAGUGUUAGGAUAUCUGAGAGUUAGUCUCGACUAGUCGAAGGAGAAGGAACAUGAGGAUCACCCAUGUAGAUC [EX4 #77] (Eterna round: R97, puzzle: Exclusion 4) | 144 | 35.8 |  |  |
| UACAAGCAAGGAUAUACAUGAGGAUCACCCAUGUCACUCCUAGCGCGGGUUUUGAAAUGUAGAAGGUGCACCUG [EX3 B.14] (Eterna round: R97, puzzle: Exclusion 3) | 17.3 | 20.5 |  |  |
